The target of experiment [1] is reconstituted nascent HDL (rHDL) particle made with isolated human apoA-I (human) (UniProt P02647). Briefly: SPR (BIAcore 3000), rHDL immobilized on CM5 chip, rPON1 500-2000 nM in flow. (In general: SPR reads the build-up and loss of mass on a sensor chip optically.)
Experiment [2] has the same target. Briefly: SPR (BIAcore 3000), rHDL immobilized on CM5 chip, apparent Kd, 1:1 binding with drifting baseline.
Experiment [3] shares this target. In words: SPR, rHDL immobilized on CM5 chip.

pKd: −log10 of the molar value.

Chain of reconstituted nascent HDL (rHDL) particle made with isolated human apoA-I (human) (P02647 25-267 limits assumed): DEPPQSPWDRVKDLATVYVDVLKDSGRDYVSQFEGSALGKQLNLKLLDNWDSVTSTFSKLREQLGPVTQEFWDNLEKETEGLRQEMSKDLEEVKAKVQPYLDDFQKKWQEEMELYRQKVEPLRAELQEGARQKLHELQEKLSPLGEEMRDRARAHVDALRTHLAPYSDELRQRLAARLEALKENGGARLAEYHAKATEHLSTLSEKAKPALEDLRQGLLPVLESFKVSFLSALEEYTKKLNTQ

As for “rPON1 pan E mutant (Leu9→Glu9, Tyr185→Glu185 and Tyr293→Glu293) with C-terminal His8 tag (enzyme)”, in experiment [1], the koff is 0.05 s⁻¹ and the kon came to 850 M⁻¹ s⁻¹. The pKd in experiment [2] was 4.23.

Consider “rPON1 pan K mutant (Leu9→Lys9, Tyr185→Lys185 and Tyr293→Lys293) with C-terminal His8 tag (enzyme)”, for which, in experiment [3], the fold less binding capacity compared with rPON1 WT turned out to be 1000 fold. Also, the koff in experiment [1] stood at 6e-05 s⁻¹.

In experiment [1], “recombinant paraoxonase 1 (PON1) variant G3C9, His-tagged (rPON1 WT) (enzyme)” had a koff of 8.5e-07 s⁻¹ and a kon of 1200 M⁻¹ s⁻¹. In experiment [2], the pKd was 9.15.

By koff is commonly meant the rate constant with which the complex falls apart. As usually defined, the kon is the rate constant with which the complex forms. The pKd is −log10 of the Kd, conventionally taken in molar units.

Values taken from US20170115280A1.
